According to paper PMC12647621, “A de novo missense variant in MIDEAS results in increased deacetylase activity of the MiDAC HDAC complex causing a neurodevelopmental syndrome” (Nature Communications, 2025):

B1: MIDEAS 717-887 (WT) (domain or fragment, human, UniProt Q6PJG2 717-887, looked up)
chain: VSIEPRINVGSRFQAEIPLMRDRALAAADPHKADLVWQPWEDLESSREKQRQVEDLLTAACSSIFPGAGTNQELALHCLHESRGDILETLNKLLLKKPLRPHNHPLATYHYTGSDQWKMAERKLFNKGIAIYKKDFFLVQKLIQTKTVAQCVEFYYTYKKQVKIGRNGTLT
B2: MIDEAS (628-887) (domain or fragment, human, UniProt Q6PJG2 628-887, looked up)
chain: TPYQSHLRSPVRLADHPSERSFELPPYTPPPILSPVREGSGLYFNAIISTSTIPAPPPITPKSAHRTLLRTNSAEVTPPVLSVMGEATPVSIEPRINVGSRFQAEIPLMRDRALAAADPHKADLVWQPWEDLESSREKQRQVEDLLTAACSSIFPGAGTNQELALHCLHESRGDILETLNKLLLKKPLRPHNHPLATYHYTGSDQWKMAERKLFNKGIAIYKKDFFLVQKLIQTKTVAQCVEFYYTYKKQVKIGRNGTLT
B3: MIDEAS 628-887 Y654S T655D (SDP) (domain or fragment, human, UniProt Q6PJG2 628-887, looked up)
chain: TPYQSHLRSPVRLADHPSERSFELPPSDPPPILSPVREGSGLYFNAIISTSTIPAPPPITPKSAHRTLLRTNSAEVTPPVLSVMGEATPVSIEPRINVGSRFQAEIPLMRDRALAAADPHKADLVWQPWEDLESSREKQRQVEDLLTAACSSIFPGAGTNQELALHCLHESRGDILETLNKLLLKKPLRPHNHPLATYHYTGSDQWKMAERKLFNKGIAIYKKDFFLVQKLIQTKTVAQCVEFYYTYKKQVKIGRNGTLT
B4: MIDEAS 628-887 Y654S (STP) (domain or fragment, human, UniProt Q6PJG2 628-887, looked up)
chain: TPYQSHLRSPVRLADHPSERSFELPPSTPPPILSPVREGSGLYFNAIISTSTIPAPPPITPKSAHRTLLRTNSAEVTPPVLSVMGEATPVSIEPRINVGSRFQAEIPLMRDRALAAADPHKADLVWQPWEDLESSREKQRQVEDLLTAACSSIFPGAGTNQELALHCLHESRGDILETLNKLLLKKPLRPHNHPLATYHYTGSDQWKMAERKLFNKGIAIYKKDFFLVQKLIQTKTVAQCVEFYYTYKKQVKIGRNGTLT
modifications: phosphorylation either on S654 or T655 detected on more than 41% of the peptides containing STP
B5: MIDEAS 628-887 Y654S T655A (SAP) (domain or fragment, human, UniProt Q6PJG2 628-887, looked up)
chain: TPYQSHLRSPVRLADHPSERSFELPPSAPPPILSPVREGSGLYFNAIISTSTIPAPPPITPKSAHRTLLRTNSAEVTPPVLSVMGEATPVSIEPRINVGSRFQAEIPLMRDRALAAADPHKADLVWQPWEDLESSREKQRQVEDLLTAACSSIFPGAGTNQELALHCLHESRGDILETLNKLLLKKPLRPHNHPLATYHYTGSDQWKMAERKLFNKGIAIYKKDFFLVQKLIQTKTVAQCVEFYYTYKKQVKIGRNGTLT

biological target: HDAC1 (full-length) (UniProt Q13547 1-482); assay: cell-based or functional assay
Sequence (Q13547 whole entry): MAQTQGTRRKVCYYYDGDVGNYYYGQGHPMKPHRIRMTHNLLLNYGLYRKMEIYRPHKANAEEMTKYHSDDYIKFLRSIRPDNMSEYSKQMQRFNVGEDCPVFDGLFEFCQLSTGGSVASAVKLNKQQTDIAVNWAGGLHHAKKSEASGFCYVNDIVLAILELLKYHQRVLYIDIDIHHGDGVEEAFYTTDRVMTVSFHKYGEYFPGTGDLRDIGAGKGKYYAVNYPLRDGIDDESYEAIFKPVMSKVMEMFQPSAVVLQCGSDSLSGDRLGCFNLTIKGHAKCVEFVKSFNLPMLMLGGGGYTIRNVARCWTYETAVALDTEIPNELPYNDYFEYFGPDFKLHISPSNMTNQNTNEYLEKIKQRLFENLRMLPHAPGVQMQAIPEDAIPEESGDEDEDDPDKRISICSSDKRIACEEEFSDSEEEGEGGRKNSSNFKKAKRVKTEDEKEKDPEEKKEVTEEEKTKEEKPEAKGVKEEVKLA

Compared with B1, B2 is lower in “initial rate of deacetylation of H3K9ac peptide (100 µM) by the MiDAC complex (50 nM HDAC1), NMR assay” value (from here on “initial rate”): 29.7 nM/s for the first, 6.3 nM/s for the second.

First: B3
Second: B4
The “initial rate” value of the first is higher: 27.3 nM/s for the first, 20.4 nM/s for the second.

With B5 the “initial rate” value was 16.6 nM/s.
